Experimental data as given in the RNAGym collection of RNA variant scans (doi:10.7554/elife.80360).

B1: Hammerhead Ribozyme (parent)
chain: ACCGGAUGUGCUUUCCGGUCUGAUGAGUCCGUGAGGACGAAACAG

Variants of: B1
Assay: self-cleavage, relative activity (ratio to wild type); higher = more cleavage; co-transcriptional
Variant ACCGGAUGUGCUUUCCGGUUUGAUGAGUCCGUGAGGAGGAAACAG [C20U C38G] has a self-cleavage of 0.298. Work on ACCGGAUGUGCUUUCCGGUUUGAUGAGUCCGUGAGGAAGAAACAG [C20U C38A] yielded a self-cleavage of 0.336. Variant ACCGGAUGUGCUUUCCGGUUUGAUGAGUCCGUGAGGAUGAAACAG [C20U C38U] has a self-cleavage of 0.501. ACCGGAUGUGCUUUCCGGUGUGAUGAGCCCGUGAGGACGAAACAG [C20G U28C] showed a self-cleavage of 0.261. ACCGGAUGUGCUUUCCGGUGUGAUGAGACCGUGAGGACGAAACAG [C20G U28A] showed a self-cleavage of 0.268. ACCGGAUGUGCUUUCCGGUGUGAUGAGGCCGUGAGGACGAAACAG [C20G U28G] showed a self-cleavage of 0.323. ACCGGAUGUGCUUUCCGGUGUGAUGAGUCCGUGAGGACAAAACAG [C20G G39A] gave a self-cleavage of 0.34. Work on ACCGGAUGUGCUUUCCGGUGUGAUGAGUCCGUGAGGACCAAACAG [C20G G39C] yielded a self-cleavage of 0.321. ACCGGAUGUGCUUUCCGGUGUGAUGAGUCCGUGAGGACUAAACAG [C20G G39U] showed a self-cleavage of 0.316. Variant ACCGGAUGUGCUUUCCGGUGUUAUGAGUCCGUGAGGACGAAACAG [C20G G22U] has a self-cleavage of 0.343. ACCGGAUGUGCUUUCCGGUGUAAUGAGUCCGUGAGGACGAAACAG [C20G G22A] showed a self-cleavage of 0.252. In the case of ACCGGAUGUGCUUUCCGGUGUCAUGAGUCCGUGAGGACGAAACAG [C20G G22C], the self-cleavage is reported as 0.43. ACCGGAUGUGCUUUCCGGUUUGAUGUGUCCGUGAGGACGAAACAG [C20U A26U] gave a self-cleavage of 0.411. For ACCGGAUGUGCUUUCCGGUUUGAUGGGUCCGUGAGGACGAAACAG [C20U A26G], the self-cleavage was 0.262. ACCGGAUGUGCUUUCCGGUUUGAUGCGUCCGUGAGGACGAAACAG [C20U A26C] gave a self-cleavage of 0.321. For ACCGGAUGUGCUUUCCGGUUUGAUGAGUCCGUGAGGACGAAACAG [C20U], the self-cleavage was 0.697. Work on ACCGGAUGUGCUUUCCGGUGUGAUCAGUCCGUGAGGACGAAACAG [C20G G25C] yielded a self-cleavage of 0.503. ACCGGAUGUGCUUUCCGGUGUGAUAAGUCCGUGAGGACGAAACAG [C20G G25A] showed a self-cleavage of 0.314. Work on ACCGGAUGUGCUUUCCGGUGUGAUUAGUCCGUGAGGACGAAACAG [C20G G25U] yielded a self-cleavage of 0.313. ACCGGAUGUGCUUUCCGGUUUGAUGAGUCCGUGAGGACGAAACCG [C20U A44C] gave a self-cleavage of 0.376. For ACCGGAUGUGCUUUCCGGUUUGAUGAGUCCGUGAGGACGAAACGG [C20U A44G], the self-cleavage was 0.962. Variant ACCGGAUGUGCUUUCCGGUUUGAUGAGUCCGUGAGGACGAAACUG [C20U A44U] has a self-cleavage of 0.324. For ACCGGAUGUGCUUUCCGGUUUGUUGAGUCCGUGAGGACGAAACAG [C20U A23U], the self-cleavage was 0.279. ACCGGAUGUGCUUUCCGGUUUGCUGAGUCCGUGAGGACGAAACAG [C20U A23C] gave a self-cleavage of 0.353. Variant ACCGGAUGUGCUUUCCGGUUUGGUGAGUCCGUGAGGACGAAACAG [C20U A23G] has a self-cleavage of 0.356. For ACCGGAUGUGCUUUCCGGUGUGAUGAGUCGGUGAGGACGAAACAG [C20G C30G], the self-cleavage was 0.37. Work on ACCGGAUGUGCUUUCCGGUGUGAUGAGUCUGUGAGGACGAAACAG [C20G C30U] yielded a self-cleavage of 0.255. In the case of ACCGGAUGUGCUUUCCGGUGUGAUGAGUCAGUGAGGACGAAACAG [C20G C30A], the self-cleavage is reported as 0.335. With ACCGGAUGUGCUUUCCGGUGUGAUGAGUCCGUGAGGACGAUACAG [C20G A41U] the self-cleavage was 0.371. In the case of ACCGGAUGUGCUUUCCGGUGUGAUGAGUCCGUGAGGACGAGACAG [C20G A41G], the self-cleavage is reported as 0.332. In the case of ACCGGAUGUGCUUUCCGGUGUGAUGAGUCCGUGAGGACGACACAG [C20G A41C], the self-cleavage is reported as 0.329. Work on ACCGGAUGUGCUUUCCGGUGUGAUGAGUCCGUGAGGACGAAGCAG [C20G A42G] yielded a self-cleavage of 0.324. Work on ACCGGAUGUGCUUUCCGGUGUGAUGAGUCCGUGAGGACGAAUCAG [C20G A42U] yielded a self-cleavage of 0.313. Variant ACCGGAUGUGCUUUCCGGUGUGAUGAGUCCGUGAGGACGAACCAG [C20G A42C] has a self-cleavage of 0.307. ACCGGAUGUGCUUUCCGGUGGGAUGAGUCCGUGAGGACGAAACAG [C20G U21G] gave a self-cleavage of 0.376. Variant ACCGGAUGUGCUUUCCGGUGCGAUGAGUCCGUGAGGACGAAACAG [C20G U21C] has a self-cleavage of 0.305. Work on ACCGGAUGUGCUUUCCGGUGAGAUGAGUCCGUGAGGACGAAACAG [C20G U21A] yielded a self-cleavage of 0.286. Work on ACCGGAUGUGCUUUCCGGUGUGAUGAGUCCGUGAGGUCGAAACAG [C20G A37U] yielded a self-cleavage of 0.272. Variant ACCGGAUGUGCUUUCCGGUGUGAUGAGUCCGUGAGGGCGAAACAG [C20G A37G] has a self-cleavage of 0.3. For ACCGGAUGUGCUUUCCGGUGUGAUGAGUCCGUGAGGCCGAAACAG [C20G A37C], the self-cleavage was 0.298. ACCGGAUGUGCUUUCCGGUUUGAUAAGUCCGUGAGGACGAAACAG [C20U G25A] gave a self-cleavage of 0.756. For ACCGGAUGUGCUUUCCGGUUUGAUCAGUCCGUGAGGACGAAACAG [C20U G25C], the self-cleavage was 0.273. Variant ACCGGAUGUGCUUUCCGGUGUGAUGAGUCCGUGAGGAAGAAACAG [C20G C38A] has a self-cleavage of 0.241. Variant ACCGGAUGUGCUUUCCGGUGUGAUGAGUCCGUGAGGAUGAAACAG [C20G C38U] has a self-cleavage of 0.38. Work on ACCGGAUGUGCUUUCCGGUGUGAUGAGUCCGUGAGGAGGAAACAG [C20G C38G] yielded a self-cleavage of 0.239. In the case of ACCGGAUGUGCUUUCCGGUGUGAUGAGUCCGUGAGGACGCAACAG [C20G A40C], the self-cleavage is reported as 0.322. With ACCGGAUGUGCUUUCCGGUGUGAUGAGUCCGUGAGGACGGAACAG [C20G A40G] the self-cleavage was 0.324. With ACCGGAUGUGCUUUCCGGUGUGAUGAGUCCGUGAGGACGUAACAG [C20G A40U] the self-cleavage was 0.355. Work on ACCGGAUGUGCUUUCCGGUGUGAUGAGUCCGUGAGGACGAAACGG [C20G A44G] yielded a self-cleavage of 0.629. ACCGGAUGUGCUUUCCGGUGUGAUGAGUCCGUGAGGACGAAACCG [C20G A44C] gave a self-cleavage of 0.278. In the case of ACCGGAUGUGCUUUCCGGUGUGAUGAGUCCGUGAGGACGAAACUG [C20G A44U], the self-cleavage is reported as 0.309. In the case of ACCGGAUGUGCUUUCCGGUGUGAUGAGUCCGUGAGGACGAAAGAG [C20G C43G], the self-cleavage is reported as 0.432. Work on ACCGGAUGUGCUUUCCGGUGUGAUGAGUCCGUGAGGACGAAAUAG [C20G C43U] yielded a self-cleavage of 0.298. Work on ACCGGAUGUGCUUUCCGGUGUGAUGAGUCCGUGAGGACGAAAAAG [C20G C43A] yielded a self-cleavage of 0.353. Variant ACCGGAUGUGCUUUCCGGUGUGAUGAGUCCGUGAGGACGAAACAA [C20G G45A] has a self-cleavage of 0.356. With ACCGGAUGUGCUUUCCGGUGUGAUGAGUCCGUGAGGACGAAACAU [C20G G45U] the self-cleavage was 0.316. Variant ACCGGAUGUGCUUUCCGGUGUGAUGAGUCCGUGAGGACGAAACAC [C20G G45C] has a self-cleavage of 0.302.
